What was measured:
His‐Mis18β (human) = His‐Mis18β (human) (UniProt O43482); test: SEC-MALS; 100 μl of about 1 mg/ml on Superdex 200 10/300 GL; 50 mM HEPES pH 8.0, 150 mM NaCl, 1 mM TCEP; 22°C; subunit numbers from measured against calculated MW
His‐GFP‐Mis18β (human) = His‐GFP‐Mis18β (human) (UniProt O43482); test: as above
Sequence of His‐GFP‐Mis18β (human) (O43482 whole entry): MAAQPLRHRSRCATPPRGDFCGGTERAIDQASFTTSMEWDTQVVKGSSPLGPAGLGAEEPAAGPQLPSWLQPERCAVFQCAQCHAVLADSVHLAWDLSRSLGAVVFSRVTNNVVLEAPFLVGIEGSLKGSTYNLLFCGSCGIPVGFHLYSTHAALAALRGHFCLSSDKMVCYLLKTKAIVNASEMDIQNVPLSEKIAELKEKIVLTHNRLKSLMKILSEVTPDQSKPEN

Sequence of His‐Mis18β (human) (O43482 whole entry): as above
Sequence of His‐Mis18α (Q9NYP9 whole entry): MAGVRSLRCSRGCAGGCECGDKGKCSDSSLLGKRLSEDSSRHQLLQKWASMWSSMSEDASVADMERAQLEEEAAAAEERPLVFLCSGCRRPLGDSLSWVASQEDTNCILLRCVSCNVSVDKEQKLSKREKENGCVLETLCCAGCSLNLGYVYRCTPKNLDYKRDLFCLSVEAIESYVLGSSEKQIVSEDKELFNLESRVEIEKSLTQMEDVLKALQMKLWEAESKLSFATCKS
Sequence of His‐GFP‐Mis18α (Q9NYP9 whole entry): as above

| stoichiometry N (His-GFP-Mis18α per His-Mis18β (4:2)) (His‐Mis18β (human)) | stoichiometry N (His-Mis18α per His-GFP-Mis18β (4:2)) (His‐GFP‐Mis18β (human)) | Substance |
| --- | --- | --- |
| 2 | – | His‐GFP‐Mis18α (from UniProt Q9NYP9 1-233) (natural protein) |
| – | 2 | His‐Mis18α (from UniProt Q9NYP9 1-233) (natural protein) |

From publication PMC5452045
